Measurements as given in patent US20230053129A1.

Biological target: Shiga toxin 2 (UniProt P09385)
Sequence (P09385 23-319, chain 1 of 2): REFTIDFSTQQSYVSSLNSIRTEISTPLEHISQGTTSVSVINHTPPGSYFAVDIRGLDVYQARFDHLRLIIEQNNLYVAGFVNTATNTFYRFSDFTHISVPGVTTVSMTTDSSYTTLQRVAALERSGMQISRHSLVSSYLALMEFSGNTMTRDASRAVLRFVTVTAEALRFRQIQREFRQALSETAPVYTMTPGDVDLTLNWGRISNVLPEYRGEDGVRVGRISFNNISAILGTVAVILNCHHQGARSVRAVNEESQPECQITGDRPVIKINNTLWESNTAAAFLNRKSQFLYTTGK
Sequence (P09386 20-89, chain 2 of 2, further chain): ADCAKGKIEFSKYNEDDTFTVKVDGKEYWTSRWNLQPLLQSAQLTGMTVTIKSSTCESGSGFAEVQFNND

## NAB815 (OA-Dab-Thr-DThr-cy[Dab-Dab-DPhe-Leu-Abu-Dab-Thr-]) (peptide)
  Kd: 5 nM
  maximum reduction of fluorescence emission: 10%
